Data reported in US20250304640A1 (ORIKINE BIO SL, published 2025).

T1: IL-10 receptor (IL-10R: IL10RA and IL10RB) on HEK-Blue IL-10 reporter cells (UniProt Q13651 22-578; Q08334 20-325, limits assumed)
T1 sequence (looked up) 1: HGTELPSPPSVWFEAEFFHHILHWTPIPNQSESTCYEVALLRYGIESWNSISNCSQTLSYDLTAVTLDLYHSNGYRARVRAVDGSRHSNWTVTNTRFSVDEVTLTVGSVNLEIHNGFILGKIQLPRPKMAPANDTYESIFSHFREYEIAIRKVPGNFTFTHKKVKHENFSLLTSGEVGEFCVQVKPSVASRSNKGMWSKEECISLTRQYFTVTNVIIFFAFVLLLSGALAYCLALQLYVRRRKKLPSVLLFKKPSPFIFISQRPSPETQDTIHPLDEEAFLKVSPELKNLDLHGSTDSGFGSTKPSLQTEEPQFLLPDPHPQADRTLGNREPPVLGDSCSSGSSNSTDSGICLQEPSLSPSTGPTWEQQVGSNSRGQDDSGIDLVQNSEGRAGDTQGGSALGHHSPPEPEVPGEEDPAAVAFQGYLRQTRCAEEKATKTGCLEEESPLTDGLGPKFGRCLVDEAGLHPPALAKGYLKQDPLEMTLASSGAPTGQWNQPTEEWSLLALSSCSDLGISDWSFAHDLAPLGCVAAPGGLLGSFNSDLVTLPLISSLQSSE
T1 sequence (looked up) 2: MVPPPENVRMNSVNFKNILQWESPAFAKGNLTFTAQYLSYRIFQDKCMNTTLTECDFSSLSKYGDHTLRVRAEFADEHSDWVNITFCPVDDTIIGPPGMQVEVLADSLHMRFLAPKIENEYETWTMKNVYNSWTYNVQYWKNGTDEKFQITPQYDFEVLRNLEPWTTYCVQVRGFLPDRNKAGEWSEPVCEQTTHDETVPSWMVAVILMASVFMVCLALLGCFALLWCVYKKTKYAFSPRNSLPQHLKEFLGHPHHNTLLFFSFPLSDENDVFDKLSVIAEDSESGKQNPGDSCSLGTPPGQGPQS

B1: CSF1-25AA-Foldikine10-HiBit (ligand)
chain: EEVSEYCSHMIGSGHLQSLQRLIDSQMETSCQITFEFVDQEQLKDPVCYLKKAFLLVQDIMEDTMRFRDNTPNAIAIVQLQELSLRLKSCFTKDYEEHDKACVRTFYETPLQLLEKVKNVFNETKNLLDKDWNIFSKNCNNSFAECSSQDGGGGGSGGSGGSGGSGGSGGSGGSGGSGGGMTQSENSCTHFPGNLPNMLRDLRDAFSRVKTFFQMKDQLDNLLLKESLLEDFKGYLGCQALSEMIQFYLEEVMPQAENQEPDIKAHVNSLGENLKTLRLRLRRCHRFLPCENKSKAVEQVKNAFNKLQEKGIYKAMSEFDIFINYIEAYMTMNNGGLDYLPNMLRDLRDAFSRVKTFFQMKDQLDNLLLKESLLEDFKGYLGCQALSEMIQFYLEEVMPQAENQDPDIKAHVNSLGENLKTLRLRLRRNHRFLPCENKSKAVEQVKNAFNKLQEKGIYKAMSEFDIFINYIEAYMTMKIRNGGVSGWRLFKKIS
B2: CSF1-30AA-IL10-HiBit (ligand)
chain: EEVSEYCSHMIGSGHLQSLQRLIDSQMETSCQITFEFVDQEQLKDPVCYLKKAFLLVQDIMEDTMRFRDNTPNAIAIVQLQELSLRLKSCFTKDYEEHDKACVRTFYETPLQLLEKVKNVFNETKNLLDKDWNIFSKNCNNSFAECSSQDGGGGGSGGSGGSGGSGGSGGSGGSGGSGGGRASPGQGTQSENSCTHFPGNLPNMLRDLRDAFSRVKTFFQMKDQLDNLLLKESLLEDFKGYLGCQALSEMIQFYLEEVMPQAENQDPDIKAHVNSLGENLKTLRLRLRRCHRFLPCENKSKAVEQVKNAFNKLQEKGIYKAMSEFDIFINYIEAYMTMKIRNGGVSGWRLFKKIS
B3: CSF1-35AA-Foldikine10-HiBit (ligand)
chain: EEVSEYCSHMIGSGHLQSLQRLIDSQMETSCQITFEFVDQEQLKDPVCYLKKAFLLVQDIMEDTMRFRDNTPNAIAIVQLQELSLRLKSCFTKDYEEHDKACVRTFYETPLQLLEKVKNVFNETKNLLDKDWNIFSKNCNNSFAECSSQDGGGGGSGGGGSGGSGGSGGSGGSGGSGGSGGSGGGMTQSENSCTHFPGNLPNMLRDLRDAFSRVKTFFQMKDQLDNLLLKESLLEDFKGYLGCQALSEMIQFYLEEVMPQAENQEPDIKAHVNSLGENLKTLRLRLRRCHRFLPCENKSKAVEQVKNAFNKLQEKGIYKAMSEFDIFINYIEAYMTMNNGGLDYLPNMLRDLRDAFSRVKTFFQMKDQLDNLLLKESLLEDFKGYLGCQALSEMIQFYLEEVMPQAENQDPDIKAHVNSLGENLKTLRLRLRRNHRFLPCENKSKAVEQVKNAFNKLQEKGIYKAMSEFDIFINYIEAYMTMKIRNGGVSGWRLFKKIS
B4: CSF1-15AA-Foldikine10-HiBit (ligand)
chain: EEVSEYCSHMIGSGHLQSLQRLIDSQMETSCQITFEFVDQEQLKDPVCYLKKAFLLVQDIMEDTMRFRDNTPNAIAIVQLQELSLRLKSCFTKDYEEHDKACVRTFYETPLQLLEKVKNVFNETKNLLDKDWNIFSKNCNNSFAECSSQDGGSGGSGGSGGSGGGMTQSENSCTHFPGNLPNMLRDLRDAFSRVKTFFQMKDQLDNLLLKESLLEDFKGYLGCQALSEMIQFYLEEVMPQAENQEPDIKAHVNSLGENLKTLRLRLRRCHRFLPCENKSKAVEQVKNAFNKLQEKGIYKAMSEFDIFINYIEAYMTMNNGGLDYLPNMLRDLRDAFSRVKTFFQMKDQLDNLLLKESLLEDFKGYLGCQALSEMIQFYLEEVMPQAENQDPDIKAHVNSLGENLKTLRLRLRRNHRFLPCENKSKAVEQVKNAFNKLQEKGIYKAMSEFDIFINYIEAYMTMKIRNGGVSGWRLFKKIS
B5: CSF1-35AA-IL10-HiBit (ligand)
chain: EEVSEYCSHMIGSGHLQSLQRLIDSQMETSCQITFEFVDQEQLKDPVCYLKKAFLLVQDIMEDTMRFRDNTPNAIAIVQLQELSLRLKSCFTKDYEEHDKACVRTFYETPLQLLEKVKNVFNETKNLLDKDWNIFSKNCNNSFAECSSQDGGGGGSGGGGSGGSGGSGGSGGSGGSGGSGGSGGGRASPGQGTQSENSCTHFPGNLPNMLRDLRDAFSRVKTFFQMKDQLDNLLLKESLLEDFKGYLGCQALSEMIQFYLEEVMPQAENQDPDIKAHVNSLGENLKTLRLRLRRCHRFLPCENKSKAVEQVKNAFNKLQEKGIYKAMSEFDIFINYIEAYMTMKIRNGGVSGWRLFKKIS
B6: CSF1-IL10-HiBit (ligand)
chain: EEVSEYCSHMIGSGHLQSLQRLIDSQMETSCQITFEFVDQEQLKDPVCYLKKAFLLVQDIMEDTMRFRDNTPNAIAIVQLQELSLRLKSCFTKDYEEHDKACVRTFYETPLQLLEKVKNVFNETKNLLDKDWNIFSKNCNNSFAECSSQDGGGGGSGGSGGSGGSGGSGGSGGSGGSGGGSPGQGTQSENSCTHFPGNLPNMLRDLRDAFSRVKTFFQMKDQLDNLLLKESLLEDFKGYLGCQALSEMIQFYLEEVMPQAENQDPDIKAHVNSLGENLKTLRLRLRRCHRFLPCENKSKAVEQVKNAFNKLQEKGIYKAMSEFDIFINYIEAYMTMKIRNGGVSGWRLFKKIS
B7: IL-10-CSF1-HiBit (ligand)
chain: SPGQGTQSENSCTHFPGNLPNMLRDLRDAFSRVKTFFQMKDQLDNLLLKESLLEDFKGYLGCQALSEMIQFYLEEVMPQAENQDPDIKAHVNSLGENLKTLRLRLRRCHRFLPCENKSKAVEQVKNAFNKLQEKGIYKAMSEFDIFINYIEAYMTMKIRNGGGGGSGGSGGSGGSGGSGGSGGSGGSGGGEEVSEYCSHMIGSGHLQSLQRLIDSQMETSCQITFEFVDQEQLKDPVCYLKKAFLLVQDIMEDTMRFRDNTPNAIAIVQLQELSLRLKSCFTKDYEEHDKACVRTFYETPLQLLEKVKNVFNETKNLLDKDWNIFSKNCNNSFAECSSQDGGVSGWRLFKKIS
B8: ORK10-003 (ligand)
chain: MTQSENSCTHFPGNLPNMLRDLRDAFSRVKTFFQMKDQLDNLLLKESLLEDFKGYLGCQALSEMIQFYLEEVMPQAENQDPDIKAHVNSLGENLKTLRLRLRRCHRFLPCENKSKAVEQVKNAFNKLQEKGIYKAMSEFDIFINYIEAYLYKTITPEFANMLRDLRDAFSRVKTFFQMKDQLDNLLLKESLLEDFKGYLGCQALSEMIQFYLEEVMPQAENQDPDIKAHVNSLGENLKTLRLRLRRCHRFLPCENKSKAVEQVKNAFNKLQEKGIYKAMSEFDIFINYIEAYMTM
B9: ORK10-005 (ligand)
chain: MTQSENSCTHFPGNLPNMLRDLRDAFSRVKTFFQMKDQLDNLLLKESLLEDFKGYLGCQALSEMIQFYLEEVMPQAENQDPDIKAHVNSLGENLKTLRLRLRRCHRFLPCENKSKAVEQVKNAFNKLQEKGIYKAMSEFDIFINYIEAKDKDIRDGDELANMLRDLRDAFSRVKTFFQMKDQLDNLLLKESLLEDFKGYLGCQALSEMIQFYLEEVMPQAENQDPDIKAHVNSLGENLKTLRLRLRRCHRFLPCENKSKAVEQVKNAFNKLQEKGIYKAMSEFDIFINYIEAYMTM
B10: IL10-HiBit (ligand)
chain: SPGQGTQSENSCTHFPGNLPNMLRDLRDAFSRVKTFFQMKDQLDNLLLKESLLEDFKGYLGCQALSEMIQFYLEEVMPQAENQDPDIKAHVNSLGENLKTLRLRLRRCHRFLPCENKSKAVEQVKNAFNKLQEKGIYKAMSEFDIFINYIEAYMTMKIRNGGVSGWRLFKKIS
B11: foldikine10-HiBit (ligand)
chain: MTQSENSCTHFPGNLPNMLRDLRDAFSRVKTFFQMKDQLDNLLLKESLLEDFKGYLGCQALSEMIQFYLEEVMPQAENQEPDIKAHVNSLGENLKTLRLRLRRCHRFLPCENKSKAVEQVKNAFNKLQEKGIYKAMSEFDIFINYIEAYMTMNNGGLDYLPNMLRDLRDAFSRVKTFFQMKDQLDNLLLKESLLEDFKGYLGCQALSEMIQFYLEEVMPQAENQDPDIKAHVNSLGENLKTLRLRLRRNHRFLPCENKSKAVEQVKNAFNKLQEKGIYKAMSEFDIFINYIEAYMTMKIRNGGVSGWRLFKKIS

molecular target: T1, IL-10 receptor (IL-10R: IL10RA and …); test: cell-based or functional assay

| EC-50 for IL10 activity, HEK-Blue IL-10 reporter cells | Binder |
| --- | --- |
| 3.61e-10 | B1 |
| 2.35e-10 | B2 |
| 3.18e-10 | B3 |
| 2.6e-10 | B4 |
| 1.9e-10 | B5 |

molecular target: T2, CSF1 receptor (CSF1R) (UniProt P07333 20-972, limits assumed); test: cell-based or functional assay
T2 sequence (P07333 20-972 limits assumed): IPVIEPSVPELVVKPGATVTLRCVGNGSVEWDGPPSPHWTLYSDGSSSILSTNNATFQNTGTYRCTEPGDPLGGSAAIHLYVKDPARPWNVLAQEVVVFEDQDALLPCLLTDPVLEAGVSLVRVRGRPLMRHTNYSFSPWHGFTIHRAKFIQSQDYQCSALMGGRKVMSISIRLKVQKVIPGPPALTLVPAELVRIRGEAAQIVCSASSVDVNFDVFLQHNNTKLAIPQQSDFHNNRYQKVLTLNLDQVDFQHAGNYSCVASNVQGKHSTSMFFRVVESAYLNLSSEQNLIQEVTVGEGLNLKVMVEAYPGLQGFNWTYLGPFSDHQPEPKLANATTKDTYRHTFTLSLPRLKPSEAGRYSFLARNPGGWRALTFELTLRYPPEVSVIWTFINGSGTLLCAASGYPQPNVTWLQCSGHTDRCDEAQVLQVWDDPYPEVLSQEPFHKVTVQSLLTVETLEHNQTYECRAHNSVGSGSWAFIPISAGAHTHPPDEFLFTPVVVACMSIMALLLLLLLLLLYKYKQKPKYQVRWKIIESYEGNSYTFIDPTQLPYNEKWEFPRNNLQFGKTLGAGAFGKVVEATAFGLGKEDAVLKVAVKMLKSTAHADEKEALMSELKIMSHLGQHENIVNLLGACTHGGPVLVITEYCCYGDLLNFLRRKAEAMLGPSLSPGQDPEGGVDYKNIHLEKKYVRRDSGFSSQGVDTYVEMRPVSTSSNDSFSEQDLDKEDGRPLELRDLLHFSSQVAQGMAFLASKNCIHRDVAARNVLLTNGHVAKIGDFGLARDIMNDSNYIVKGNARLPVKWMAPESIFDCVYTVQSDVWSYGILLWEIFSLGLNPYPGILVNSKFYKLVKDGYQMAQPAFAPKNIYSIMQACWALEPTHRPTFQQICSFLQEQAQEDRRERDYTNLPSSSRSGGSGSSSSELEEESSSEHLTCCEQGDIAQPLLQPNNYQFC

| CSF1 EC-50, HEK293 CSF1R/SRE reporter | Binder |
| --- | --- |
| 7.81e-10 | B6 |
| 4.64e-09 | B7 |

molecular target: T1, IL-10 receptor (IL-10R: IL10RA and …); test: cell-based or functional assay; remark: another data set of the same source

| EC-50, HEK-Blue IL-10 reporter cells | Binder |
| --- | --- |
| 2.3e-10 | B8 |
| 6.25e-10 | B9 |

molecular target: T1, IL-10 receptor (IL-10R: IL10RA and …); test: cell-based or functional assay; remark: another data set of the same source

| IL-10 EC-50, HEK-Blue IL-10 reporter cells | Binder |
| --- | --- |
| 1.16e-09 | B6 |
| 5.9e-09 | B7 |
| 8e-10 | B10 |
| 2.14e-10 | B11 |

molecular target: T2, CSF1 receptor (CSF1R); test: cell-based or functional assay; remark: another data set of the same source

| EC-50 for CSF1 activity, HEK293 CSF1R/SRE reporter | Binder |
| --- | --- |
| 1.64e-09 | B1 |
| 5.5e-10 | B2 |
| 1.83e-09 | B3 |
| 1.19e-09 | B4 |
| 6.5e-10 | B5 |
